The values below come from US7897573B2, “Selective VPAC2 receptor peptide agonists” (priority 2005, dated 2011).

A short description of data set [1]: Rat serum stability study (DiscoveRx cAMP read-out on CHO-VPAC2 cells). To be noted: EC50, 4° C./EC50, 37° C., values >100% may represent release of intact peptide from the PEG conjugate; for 24 h stab (%): 24 h in rat serum at 37° C. As to the method:
In order to determine the stability of VPAC2 receptor peptide agonists in rat serum, CHO-VPAC2 cells clone #6 (96 well plates/50,000 cells/well and 1 day culture), PBS 1× (Gibco), the peptides for the analysis in a 100 μM stock solution, rat serum from a sacrificed normal Wistar rat, aprotinin, and a DiscoveRx assay kit are obtained. The rat serum is stored at 4° C. until use and is used within two weeks.
The aliquot is stored with aprotinin at 4° C. The aliquot is stored without aprotinin at 37° C. The aliquots are incubated for 24 or 72 hours.
On Day 1, after incubation of the aliquots prepared on day 0 for 24 or 72 hours, an incubation buffer containing PBS+1.3 mM CaCl2, 1.2 mM MgCl2, 2 mM glucose, and 0.25 mM IBMX is prepared. A plate with 11 serial 5× dilutions of peptide for the 4° C. and 37° C. aliquot is prepared for each peptide studied. […] The plate(s) are washed with cells twice in incubation buffer. The plates are allowed to hold 50 μL incubation media per well for 15 minutes. 50 μL solution per well is transferred to the cells from the plate prepared with 11 serial 5× dilutions of peptide for the 4° C. and 37° C. aliquot for each peptide studied, using the maximal concentrations that are indicated by the primary screen, in duplicate. This step dilutes the peptide concentration by a factor of two. The cells are incubated at room temperature for 30 minutes. The supernatant is removed. 40 μL/well of the DiscoveRx antibody/extraction buffer is added. The cells are incubated on the shaker (300 rpm) for 1 hour. Normal procedure with the DiscoveRx kit is followed. cAMP standards are included in column 12. EC50 values are determined from the cAMP assay data.

In data set [2] the target is T1, Human VPAC1 Receptor (Homo sapiens, UniProt P32241).
T1 construct: expressed in transfected cells
T1 sequence (P32241 31-457): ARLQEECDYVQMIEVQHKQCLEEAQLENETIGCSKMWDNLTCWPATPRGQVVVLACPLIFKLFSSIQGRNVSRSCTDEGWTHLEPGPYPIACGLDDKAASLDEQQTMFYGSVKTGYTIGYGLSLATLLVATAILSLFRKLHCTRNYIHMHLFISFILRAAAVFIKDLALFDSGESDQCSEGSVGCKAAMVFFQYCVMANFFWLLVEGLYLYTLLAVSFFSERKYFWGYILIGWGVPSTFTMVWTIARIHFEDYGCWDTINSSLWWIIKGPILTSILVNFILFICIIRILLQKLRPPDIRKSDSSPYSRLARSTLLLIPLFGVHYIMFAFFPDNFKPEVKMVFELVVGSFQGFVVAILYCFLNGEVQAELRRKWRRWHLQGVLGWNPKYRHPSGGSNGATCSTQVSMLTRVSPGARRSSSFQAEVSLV
The experiment in a line: Filter binding assay, 125I-labeled VIP, membranes of cells transiently transfected with human VPAC1. The settings on record: 125I-labeled VIP tracer. As to the method:
For this assay, the solutions and equipment include:
Presoak solution: 0.5% Polyethyleneamine in Aqua dest
Buffer for flushing filter plates: 25 mM HEPES pH 7.4
Blocking buffer: 25 mM HEPES pH 7.4; 0.2% protease free BSA
Assay buffer: 25 mM HEPES pH 7.4; 0.5% protease free BSA
Dilution and assay plate: PS-Microplate, U form
Filtration Plate Multiscreen FB Opaque Plate; […] Type B Glasfiber filter
In order to prepare the filter plates, the presoak solution is aspirated by vacuum filtration. The plates are flushed twice with 200 μL flush buffer. 200 μL blocking buffer is added to the filter plate. The filter plate is then incubated with 200 μL presoak solution for 1 hour at room temperature.
The assay plate is filled with 25 μL assay buffer, 25 μL membranes (2.5 μg) suspended in assay buffer, 25 μL agonist in assay buffer, and 25 μL tracer (about 40000 cpm) in assay buffer. The filled plate is incubated for 1 hour with shaking.
The transfer from assay plate to filter plate is conducted. The blocking buffer is aspirated by vacuum filtration and washed two times with flush buffer. 90 μL is transferred from the assay plate to the filter plate. The 90 μL transferred from assay plate is aspirated and washed three times with 200 μL flush buffer. The plastic support is removed. It is dried for 1 hour at 60° C. 30 μL Microscint is added. The count is performed.

A short description of data set [3]: Pharmacokinetic profiles of PEGylated peptides in Fisher 344 rats. The format is in vivo, rat. To be noted: 100 μg agonist/kg, plasma RIA, mean N = 3. The protocol:
Pharmacokinetic profiles of PEGylated peptides. Healthy Fisher 344 rats (3 animals per group) were injected with 100 μg agonist/kg (agonist amount based on peptide content and dissolved in PBS buffer). Blood samples were drawn 3, 12, 24, 48, 72, 96 and 168 hour post dosing and the peptide content in plasma was analysed by a radio-immunoassay (RIA) directed against the N-terminus of the peptide. PK parameters were then calculated using a model-independent method (WinNonlin Pro, Pharsight Corp., Mountain View, Calif., USA).

Where only a bound is given, the exact number is not on record here.

Consider “C6-HSDAVFTEQY(OMe)TOrnLRAibQLAAAibOrnYLQSIOrnOrnC(PEG40K)GGPSSGAPPPS-NH2 (HSDAVFTEQYTXLRXQLAAXXYLQSIXXCGGPSSGAPPPS; C6 acyl, PEG40K on Cys, C-terminal amide; Synthetic sequence PEGylated VPAC2 receptor agonist) [Agonist P560]”, for which the “24 h stab (%)” value in data set [1] was determined as 192%. One may read the IC50 as the concentration that gives 50% inhibition. The low end stands for greater potency, the high end for weaker potency. In data set [2], “C6-HSDAVFTEQY(OMe)TOrnLRAibQLAAbuAibOrnYLQAibC(PEG40K)OrnOrnGGPSSGAPPPS-NH2 (HSDAVFTEQYTXLRXQLAXXXYLQXCXXGGPSSGAPPPS; C6 acyl, PEG40K on Cys, C-terminal amide; Synthetic sequence PEGylated VPAC2 receptor agonist) [Agonist P541]” showed a half-inhibitory concentration (IC50) greater than 25000 nM. Regarding “C6-HSDAVFTEQY(OMe)TOrnLRAibQLAAbuAibOrnYLQAibIOrnOrnGGPSSGAPPPC(PEG20K)C(PEG20K)-NH2 (HSDAVFTEQYTXLRXQLAXXXYLQXIXXGGPSSGAPPPCC; C6 acyl, two PEG20K, C-terminal amide; Synthetic sequence PEGylated VPAC2 receptor agonist) [Agonist P517]”, in data set [2], the IC50 was greater than 25000 nM.

Take “C6-HSDAVFTEQY(OMe)TOrnLRAibQLAAbuAibOrnYLQSC(PEG40K)OrnOrnGGPSSGAPPPS-NH2 (HSDAVFTEQYTXLRXQLAXXXYLQSCXXGGPSSGAPPPS; C6 acyl, PEG40K on Cys, C-terminal amide; Synthetic sequence PEGylated VPAC2 receptor agonist) [Agonist P543]”: the “24 h stab (%)” value in data set [1] worked out at 119%. Take “C6-HSDAVFTEQY(OMe)TOrnLRAibQLAAbuAibOrnYLQSIOrnOrnC(PEG4OK)GGPSSGAPPPS-NH2 (HSDAVFTEQYTXLRXQLAXXXYLQSIXXCGGPSSGAPPPS; C6 acyl, PEG40K on Cys, C-terminal amide; Synthetic sequence PEGylated VPAC2 receptor agonist) [Agonist P566]”: the “24 h stab (%)” value in data set [1] stood at 152%.

In the case of “C6-HSDAVFTEQY(OMe)TOrnLRAibQLAAbuAibOrnYLQSIOrnOrnGGPSSGAPPPC(PEG20K)C(PEG20K)-NH2 (HSDAVFTEQYTXLRXQLAXXXYLQSIXXGGPSSGAPPPCC; C6 acyl, two PEG20K, C-terminal amide; Synthetic sequence PEGylated VPAC2 receptor agonist) [Agonist P523]”, the “72 h stab (%)” value in data set [1] (72 h in rat serum at 37° C.) amounted to 281%. Substance “C6-HSDAVFTEQY(OMe)TOrnLRAibQVAAAibC(PEG40K)YLQSIOrnOrnGGPSSGAPPPS-NH2 (HSDAVFTEQYTXLRXQVAAXCYLQSIXXGGPSSGAPPPS; C6 acyl; PEG40K; non-natural residues; amide; Synthetic sequence PEGylated VPAC2 receptor peptide agonist) [Agonist P460]” came in with a half-inhibitory concentration (IC50) in data set [2] greater than 25000 nM.

In turn, “C6-HSDAVFTEQY(OMe)TOrnLRAibQVAAAibK(W-PEG40K)YLQSIOrnOrnGGPSSGAPPPS-NH2 (HSDAVFTEQYTXLRXQVAAXXYLQSIXXGGPSSGAPPPS; C6 acyl; PEG40K; non-natural residues; amide; Synthetic sequence PEGylated VPAC2 receptor peptide agonist) [Agonist P410]” yielded an IC50 in data set [2] greater than 25000 nM. Same read-out and setting: the value for “C6-HSDAVFTEQY(OMe)TOrnLRAibQVAAAibOrnYLQAibIOrnOrnGGPSSGAPPPC(PEG40K)-NH2 (HSDAVFTEQYTXLRXQVAAXXYLQXIXXGGPSSGAPPPC; C6 acyl, PEG40K on Cys, C-terminal amide; Synthetic sequence PEGylated VPAC2 receptor agonist) [Agonist P509]” was greater than 25000 nM. For the substance “C6-HSDAVFTEQY(OMe)TOrnLRAibQVAAAibOrnYLQSC(PEG20K)OrnOrnGGPSSGAPPPC(PEG20K)-NH2 (HSDAVFTEQYTXLRXQVAAXXYLQSCXXGGPSSGAPPPC; C6 acyl, two PEG20K, C-terminal amide; Synthetic sequence PEGylated VPAC2 receptor agonist) [Agonist P503]”, the “24 h stab (%)” value in data set [1] was 174%. One may read the Cmax as the peak of the concentration-time curve. What is called Tmax is the time from dosing to the highest level. In data set [2], “C6-HSDAVFTEQY(OMe)TOrnLRAibQVAAAibOrnYLQSIOrnK(CO(CH2)2SPEG20K)OrnGGPSSGAPPPC(PEG20K)-NH2 (HSDAVFTEQYTXLRXQVAAXXYLQSIXXXGGPSSGAPPPC; C6 acyl, two PEG20K, C-terminal amide; Synthetic sequence PEGylated VPAC2 receptor agonist) [Agonist P499]” displayed an IC50 greater than 25000 nM. Also, in data set [3], the AUC0-last was 6650 ng·h/mL, the Cl/F came to 0.25 mL/min/kg, the Cmax is recorded as 132 ng/mL and the Tmax is listed as 24 h. The substance also came in with a T½ in data set [3] of 25 h.

As to “C6-HSDAVFTEQY(OMe)TOrnLRAibQVAAAibOrnYLQSIOrnK(WPEG40K)OrnGGPSSGAPPPS-NH2 (HSDAVFTEQYTXLRXQVAAXXYLQSIXXXGGPSSGAPPPS; C6 acyl; PEG40K; non-natural residues; amide; Synthetic sequence PEGylated VPAC2 receptor peptide agonist) [Agonist P454]”, in data set [2], the 50% inhibitory concentration (IC50) is greater than 25000 nM. The same measure, in the same setting: the value for “C6-HSDAVFTEQY(OMe)TOrnLRAibQVAAAibOrnYLQSK(WPEG40K)OrnOrnGGPSSGAPPPS-NH2 (HSDAVFTEQYTXLRXQVAAXXYLQSXXXGGPSSGAPPPS; C6 acyl, PEG40K on Lys, C-terminal amide; Synthetic sequence PEGylated VPAC2 receptor agonist) [Agonist P535]” was greater than 25000 nM.

As to “C6-HSDAVFTEQY(OMe)TOrnLRAibQVAAK(CO(CH2)2SPEG40K)OrnYLQSIOrnOrnGGPSSGAPPPS-NH2 (HSDAVFTEQYTXLRXQVAAXXYLQSIXXGGPSSGAPPPS; N-terminal C6 acyl, PEG40K on Lys, C-terminal amide; Synthetic sequence PEGylated VPAC2 receptor agonist) [Agonist P475]”, in data set [1], the “24 h stab (%)” value turned out to be 61%.

As to “C6-HSDAVFTEQY(OMe)TOrnLRAibQVAK(CO(CH2)2SPEG20K)AibOrnYLQSIOrnOrnGGPSSGAPPPC(PEG20K)-NH2 (HSDAVFTEQYTXLRXQVAXXXYLQSIXXGGPSSGAPPPC; C6 acyl, two PEG20K, C-terminal amide; Synthetic sequence PEGylated VPAC2 receptor agonist) [Agonist P492]”, the “24 h stab (%)” value in data set [1] worked out at 131%.

As to “C6-HSDAVFTEQY(OMe)TOrnLRAibQVC(PEG40K)AAibOrnyLQSIOrnOrnGGPSSGAPPPS-NH2 [Agonist P478]”, the “24 h stab (%)” value in data set [1] is 34%. “C6-HSDAVFTEQY(OMe)TOrnLRK(CO(CH2)2SPEG40K)QVAAAibOrnYLQSIOrnOrnGGPSSGAPPPS-NH2 (HSDAVFTEQYTXLRXQVAAXXYLQSIXXGGPSSGAPPPS; N-terminal C6 acyl, PEG40K on Lys, C-terminal amide; Synthetic sequence PEGylated VPAC2 receptor agonist) [Agonist P485]”: the “24 h stab (%)” value in data set [1] is on record as 65%.
